Consider 1 substance from article PMC2943749.

This assay addresses PtdIns5P 4-kinase IIβ, genomically tagged with a FLAG-(His6)2 tag (DT40 cell line JPR3) (chicken (endogenous in DT40)). The experiment in a line: affinity purification with mass spectrometry.

“And” between values parts separate entries of the source, which are not always exact repeats. Equal values may be shown once.

For the substance “PtdIns5P 4-kinase IIα, endogenous and untagged (in JPR3 DT40 cells) (from UniProt Q5F356 1-405) (enzyme)”, the ratio IIβ/IIα in the pull-down (peptide set 559/565) is 1.39 and 1.37 and 1.75; the ratio IIβ/IIα in the pull-down (peptide set 829/828) is 0.92 and 1.41 and 1.47.
